The test deals with T1, AFP_(158–166) peptide complexed with HLA-A*02:01 (Homo sapiens, HLA-A*02:01).
T1 construct: HLA-A*02:01 heavy chain, soluble recombinant; β2-microglobulin, recombinant; alpha-fetoprotein (AFP) peptide, residues 158–166; also called AFP/HLA-A*02; AFP/HLA-A*02 complex; copies: + +
The test is described as follows: SPR; Biacore T200, CM5 chip; AFP/HLA-A*02 amine coupled (100–200 RU); kinetic titration, five injections of increasing TCRm, 100 μL/min, 25 °C; 1:1 binding model; mean of three experiments. The conditions noted are these: both partners purified. Background: Surface plasmon resonance follows binding to a sensor surface in real time, without labels.

The source of these data is paper PMC9287321 (Scientific Reports, 2022).

As usually defined, the Kd is a measure of binding affinity in units of concentration.

B1: anti-AFP TCRm antibody, Fab fragment (Fab, V domains shown)
VH: EVQLVQSGAEVKKPGESLTISCKASGYSFPNYWITWVRQMSGGGLEWMGRIDPGDSYTTYNPSFQGHVTISIDKSTNTAYLHWNSLKASDTAMYYCARYYVSLVDIWGQGTLVTVSS
VL: QSVLTQPASVSGSPGQSITISCTGTSSDVGGYNYVSWYQQHPGKAPKLMIYDVNNRPSEVSNRFSGSKSGNTASLTISGLQAEDEADYYCSSYTTGSRAVFGGGTKLTVL
notes: Fab cut by papain from human IgG1; also called TCR mimic antibody; TCRm Fab fragment
Turning to B1, the dissociation constant (Kd) is 7 nM.
